The assay concerns the target T1, human islet-specific glucose-6-phosphatase catalytic subunit-related protein (IGRP) peptide on HLA-DRA*01:01 … (human).
T1 peptide: QHLQKDYRAYYTF
Description: multimer staining.
Description: Three million transduced and sorted GP+envAm12 were plated per well of a 6 well plate in a final volume of 3 ml. Next day 100,000 JURMA-hCD4 were co-cultured with the pre-plated transduced GP+envAm12 in a final volume of 3 ml supplemented with 8 ug/ml of polybrene. This co-culture was maintained during two weeks changing the media every 2 or 3 days. After co-culture, JURMA-hCD4 cells were harvested analyzed by flow cytometry and sorted for high transgene expression. Cells were then stained with PE labeled heterodimers.

B1: IGRP13-25 TCR (TCR, V domains shown)
Valpha: DQQVKQNSPSLSVQEGRISILNCDYTNSMFDYFLWYKKYPAEGPTFLISISSIKDKNEDGRFTVFLNKSAKHLSLHIVPSQPGDSAVYFCAATNSGGSNYKLTFGKGTLLTVNP
Vbeta: DGGITQSPKYLFRKEGQNVTLSCEQNLNHDAMYWYRQDPGQGLRLIYYSQIVNDFQKGDIAEGYSVSREKKESFPLTVTSAQKNPTAFYLCASGGRVYQPQHFGDGTRLSIL
Take B1: the binding result is “recognises”.

These data come from patent publication US20200057048A1 (published 2020).
